Source: US6255062A, “β-type DNA polymerases” (priority 1994, dated 2001)

Columns and labels:
[1] = target: T1, yeast β-type DNA polymerase (Saccharomyces cerevisiae, UniProt P25615); assay: Inhibitor sensitivity of DNA polymerase activity in 12CA5 immunoprecipitates; format: biochemical; details: for Polβ Activity (1): experiment 1; for Polβ Activity (2): experiment 2
T1 construct: made in house; host or cells: Saccharomyces cerevisiae BJ5459 carrying pGAL18HAβ, galactose induced; 12CA5 immunoprecipitate on protein A beads

[2] = tested on: DNA polymerases α, δ and ε; details: cited from earlier work
[3] = tested on: dA-dT and rA-dT primer-templates; assay: rNTP incorporation and reverse transcriptase activities of immunoprecipitated polymerase; format: biochemical
[4] = tested on: activated DNA or poly dA-oligo dT primer-template; assay: DNA polymerase activity in 12CA5 immunoprecipitates; format: biochemical; details: for Polβ Activity (1): experiment 1; for Polβ Activity (2): experiment 2
[5] = tested on: poly dT labeled at the 3'-end with terminal transferase; assay: 3' exonuclease activity; format: biochemical; details: data not shown
[6] = dA-dT (20:1), dTTP (10 mM)/ddTTP (10 mM)
[7] = primer-template DNA, Aphidicolin (30 μg/ml), compare dCTP (10 mM) control

Molecule: Cc1cn([C@H]2CC[C@@H](COP(=O)(O)OP(=O)(O)OP(=O)(O)O)O2)c(=O)[nH]c1=O [ddTTP, dideoxythymidine triphosphate]
- Polβ Activity (1) [1, 6]: 11
- Polβ Activity (2) [1, 6]: 6
- effect of ddTTP on yeast β-type DNA polymerase ([1]; levels used in Table 2): inhibited
- inhibition of DNA polymerase α, δ and ε ([2]; ddTTP at the levels used here): does not inhibit

Molecule: CCN1C(=O)C=CC1=O [NEM, N-ethylmaleimide]
- sensitivity of yeast β-type DNA polymerase to N-ethylmaleimide ([1]; 10 mM): sensitive
- Polβ Activity (1) ([1]; primer-template DNA, NEM (10 mM)): 8

Molecule: C[C@@]1(CO)[C@H](O)CC[C@@]2(C)[C@H]1CC[C@H]1C[C@@H]3C[C@@]12CC[C@]3(O)CO [Aphidicolin, aphidicolin]
- sensitivity of yeast β-type DNA polymerase to aphidicolin ([1]; 30 μg/ml): resistant
- Polβ Activity (1) [1, 7]: 162
- Polβ Activity (2) [1, 7]: 78
- inhibition of DNA polymerases α, δ and ε ([2]; aphidicolin 30 μg/ml): completely inhibits

B1: HA polβ: β-type DNA polymerase from S. cerevisiae (POL4, SEQ ID NO:2) tagged at NH2 terminus with influenza hemagglutinin epitope (protein)
chain: MSLKGKFFAFLPNPNTSSNKFFKSILEKKGATIVSSIQNCLQSSRKEVIILIEDSFVDSDMHLTQKDIFQREAGLNDVDEFLGKIEQSGIQCVKTSCITKWVQNDKFAFQKDDLIKFQPSIIVISDNADDGQSSTDKESEISTDVESERNDDSNNKDMIQASKPLKRLLQEDKGRASLVTDKTKYKNNELIIGALKRLTKKYEIEGEKFRARSYRLAKQSMENCDFNVRSGEEAHTKLRNIGPSIAKKIQVILDTGVLPGLNDSVGLEDKLKYFKNCYGIGSEIAKRWNLLNFESFCVAAKKDPEEFVSDWTILFGWSYYDDWLCKMSRNECFTHLKKVQKALRGIDPECQVELQGSYNRGYSKCGDIDLLFFKPFCNDTTELAKIMETLCIKLYKDGYIHCFLQLTPNLEKLFLKRIVERFRTAKIVGYGERKRWYSSEIIKKFFMGVKFSPRELEELKEMKNDEGTLLIEEEEEEETKLNPIDQYMSLNAKDGNYCRRLDFFCCKWDELGAGRIHYTGSKEYNRWIRILAAQKGFKLTQHGLFRNNILLESFNERRIFELLNLKYAEPEHRNIEWEKKTA
modifications: N-terminal HA epitope tag
- processivity [3]: processivity is low
- Activity ([3]; dA-dT, 3H NTP T, Mg, Experiment 1): 480 pmol
- Activity ([3]; dA-dT, 3H NTP T, Mn, Experiment 1): 769 pmol
- Activity ([3]; dA-dT, 3H NTP U, Mg, Experiment 1): 110 pmol
- Activity ([3]; dA-dT, 3H NTP U, Mg, Experiment 2): 187 pmol
- Activity ([3]; dA-dT, 3H NTP U, Mn, Experiment 1): 202 pmol
- Activity ([3]; dA-dT, 3H NTP U, Mn, Experiment 2): 209 pmol
- reverse transcriptase activity ([3]; in the presence of either Mg++ or Mn++): significant reverse transcriptase activity
- Activity ([3]; rA-dT, 3H NTP T, Mg, Experiment 1): 65 pmol
- Activity ([3]; rA-dT, 3H NTP T, Mg, Experiment 2): 81 pmol
- Activity ([3]; rA-dT, 3H NTP T, Mn, Experiment 1): 191 pmol
- Activity ([3]; rA-dT, 3H NTP T, Mn, Experiment 2): 59 pmol
- Activity ([3]; rA-dT, 3H NTP U, Mg, Experiment 2): 32 pmol
- Activity ([3]; rA-dT, 3H NTP U, Mn, Experiment 2): 55 pmol
- DNA polymerase activity relative to controls [4]: 10 fold
- synthesis on the poly dA template alone (primer requirement) [4]: No synthesis was observed
- Polβ Activity (1) ([4]; […], Complete): 101
- Polβ Activity (1) ([4]; […], dCTP (10 mM)): 212
- Polβ Activity (2) ([4]; […], dCTP (10 mM)): 106
- Polβ Activity (1) ([4]; dA-dT (10:1), Complete): 105
- Polβ Activity (2) ([4]; dA-dT (10:1), Complete): 244
- Polβ Activity (1) ([4]; dA-dT (20:1), Complete): 293
- Polβ Activity (2) ([4]; dA-dT (20:1), Complete): 411
- Polβ Activity (1) ([4]; dA-dT (20:1), dTTP (10 mM)): 95
- Polβ Activity (2) ([4]; dA-dT (20:1), dTTP (10 mM)): 102
- 3' exonuclease activity [5]: no 3' exonuclease activity
